First the molecules themselves.
B8: human Bcl-XL a.a. 1-205 with C-terminal avi-6his tag (other)
chain: SQSNRELVVDFLSYKLSQKGYSWSQFSDVEENRTEAPEGTESEMETPSAINGNPSWHLADSPAVNGATGHSSSLDAREVIPMAAVKQALREAGDEFELRYRRAFSDLTSQLHITPGTAYQSFEQVVNELFRDGVNWGRIVAFFSFGGALCVESVDKEMQVLVSRIAAWMATYLNDHLEPWIQENGGWDTFVELYGNNAAAESRKGLNDIFEAQKIEWHEGSHHHHHH
notes: also called BCL2L1

Assay [1] deals with B8. Kind of assay: initial BLI screening (column 'Binds target?').
The target of assay [2] is T1, Epstein-Barr virus BHRF1 a.a. 1-161 with C-terminal avi-6his tag (Epstein-Barr virus).
T1 construct: also called EBV BHRF1; BHRF1-biotin
T1 chain: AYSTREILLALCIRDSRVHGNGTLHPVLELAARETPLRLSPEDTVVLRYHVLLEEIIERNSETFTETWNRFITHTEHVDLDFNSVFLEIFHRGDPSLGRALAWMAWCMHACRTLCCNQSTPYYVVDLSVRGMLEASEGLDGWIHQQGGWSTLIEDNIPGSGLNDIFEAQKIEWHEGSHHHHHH
Kind of assay: yeast display library, FACS sort at 400 nM BHRF1, deep sequencing.

Assay [3] deals with T1, Epstein-Barr virus BHRF1 a.a. 1-161 …. Put plainly: yeast display library, FACS sort at 100 nM BHRF1, deep sequencing.
Assay [4] deals with T2, Bim-BH3 motif fused to the C-terminus of maltose-binding protein (MBP) (human, UniProt O43521 141-166).
T2 construct: domain: Bim-BH3 motif; also called MBP-Bim-BH3
Kind of assay: BLI, biotinylated target on streptavidin sensor, MBP-Bim-BH3 in solution. For orientation: Biolayer interferometry detects binding as a change in optical thickness at a sensor tip.

In assay [5] the target is T1, Epstein-Barr virus BHRF1 a.a. 1-161 …. Put plainly: yeast surface display; BHRF1 titrated on clonal yeast showing the design, fluorescence by flow cytometry (apparent KD).

T2 sequence (O43521 141-166 limits assumed): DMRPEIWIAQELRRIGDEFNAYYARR

B1: X-CDP04 (designed binder)
chain: ADPKKVLDKAKDQAENRVRELKQKLEELYKEARKLDLTQEDRKRLLLQYIAAMLAAIGDLENAIRWAKREADKLKKAGLVNSQQLDELKRRLEELAKEAAEKAADYGEEFNLKLEY
In the case of B1, the binding result in assay [1] is listed as “binds”.

B2: Index 33 (designed binder)
chain: GKQWQEAFEEARRRIEEKAREFEDRAKKEALLHLFFIPHDKEIADNSKKWIAWALMLIGDIFNLEEEAAERARRHVKRGEISEDDAKQIRKRLQEQAKRAAWWMRYWGEESAKFAFIG
Take B2: the Log2 enrichment ratio in assay [2] is -3.85 log2; in assay [3], -4.18 log2.

B3: Index 37 (designed binder)
chain: GDFWLKAIEIAGGRMLERARESWYRALYFILMVKLFYPSDDLRRIFTLRWIAESLKLIGDAFNLFELARELLELYYKYGWITLEKALKALWILLKLEEIFSKASKDLGERLAEEIERG
With B3, the Log2 enrichment ratio in assay [2] is -2.14 log2; in assay [3], -3.13 log2.

B4: Index 31 (designed binder)
chain: GDQADKIKDKIKDEAKKKADEFKKRLEQFREYLEKVYSDDLKEIYLTIFWIALALMLIGDAFNEKMLLEWEFKERKKRNLRHEEELKEEKKKREEAEKALEWASKYASQVGKEAAEEG
As for B4, the Log2 enrichment ratio in assay [2] was -4.21 log2; in assay [3], -3.55 log2.

B5: Index 30 (designed binder)
chain: GSRWFDAEDKMRERKDRAILQLLFMLWIIFYILWYGDDTEEAKRKAMAAWIALALIGIGDIFNAEAEFLEELERAIKQGQVSDQLKEELLKRMEDDKRDLEKRLYEFLLKALLQWMQG
On to B5, for which the Log2 enrichment ratio is -4.1 log2 in assay [2] and -2.58 log2 in assay [3].

B6: Index 36 (designed binder)
chain: GYTKEWIRDRAKEELDRFADEAKDKADKIRDDFEKRDDKNQIAAELTKKWIAAELEAIGDAFNRAEEAKERLKKLLKLGLTRKEEAEEAAEKLEKLEKEASEKLSKIAHEVSKHDDQG
With B6, the Log2 enrichment ratio in assay [2] is -3.65 log2; in assay [3], -3.6 log2.

B7: Index 28 (designed binder)
chain: GKEGSRLREEAERRGLRKLLEVILRWLEDALRMIYGQDKDEDRKEATHRWIADALELIGDIFNALLEAFIKMELARRFGLLEEQRARDEKKKALERAEEFSKRARELGEKLTQILEGG
As for B7, the Log2 enrichment ratio in assay [2] is -2.85 log2; in assay [3], -4.52 log2.
B8 had a Kd in assay [4] of 1.56 nM.

B9: Index 34 (designed binder)
chain: GKFKKLFENYAELFARWVADKGKKLAEELREKAEKGLKLQKLWLIFTMIWIAIMLMSIGDAFNLALLAELWVQAAKNYGWLRDNEADEAEDRVRKFADEASRRALEKGLEALRKILEG
B9: the results for the Log2 enrichment ratio in assay [2] and in assay [3] were -2.21 log2 and -3.41 log2, respectively.

B10: X-CDP03 (designed binder)
chain: ADPKKVLDKAKDQAENRVRELKQKLEELYKEARKLDLTQEMRRELRNRAIAAILQAIGDLLNAIQQAKDEADKLKKAGLVNSQQLDELKRRLEELQNEAAEKAADYGEEFWLKLEY
Consider B10, for which, in assay [1], the binding result is recorded as “binds”.

B11: Index 35 (designed binder)
chain: GGDGVKELEELEKRKDEKKNKAEDRIKKFKDEAKYADDRTEDKEKLAHRWIALALDIIGDAFNLKEEARRRFLRHKFRGELDDSKKEYAEKEMKRFEDDVEKDAEELAQKAKEAFKEG
In the case of B11, the Log2 enrichment ratio in assay [2] is -3.29 log2; in assay [3], -3.51 log2.

B12: X-CDP05 (designed binder)
chain: ADPKKVLDKAKDQAENRVRELKQKLEELYKEARKLDLTQEMRRQLRDQYIAAMLAAIGDLLNAIMQAKREADKLKKAGLVNSQQLDELKRRLEELEEEAAQKAADYGQEFLLKLEY
With B12, the binding result in assay [1] is “binds”.

B13: X-CDP01 (designed binder)
chain: ADPKKVLDKAKDQAENRVRELKQKLEELYKEARKLDLTQEMRRELQARYIAAMLAAAGDIMEAIQQAKNEADKLKKAGLVNSQQLDELKRRLEELAKEAARKAEDYGREFQLKLEY
With B13, in assay [1], the binding result is listed as “binds”.

B14: X-CDP02 (designed binder)
chain: ADPKKVLDKAKDQAENRVRELKQKLEELYKEARKLDLTQEMRKELVARYIAAMLAAAGDIVQAIQDAKNEADKLKKAGLVNSQQLDELKRRLEELAKEAARKATDYGREFQLKLEY
B14: the binding result in assay [1] was “binds”.

B15: X-CDP11 (designed binder)
chain: ADPKKVLDKAKDQAENRVRELKQKLEELYKEARKLDLTQEMRRELRDRYIAAMLAAIGDLFNAIQWAKQEADKLKKAGLVNSQQLDELKRRLEELAEEAARKAEDYGEEFKLKLEY
Take B15: the binding result in assay [1] was “binds”.

B16: X-CDP10 (designed binder)
chain: ADPKKVLDKAKDQAENRVRELKQKLEELYKEARKLDLTQEMRRELRERYIAAMLAAAGDLWYAITQAKREADKLKKAGLVNSQQLDELKRRLEELLEEAARKAEDYGEEFRLKLEY
For the molecule B16, the binding result in assay [1] is listed as “binds”.

B17: Index 27 (designed binder)
chain: GLDGDYLMDEAFKFIERERERAEEEAKKMYELAEKGKYYEERKTKATKFWIALALEMIGDFFNFEMWFRKYAEKNRENNQRREDLLRRWELLLRFQAWDAAERARELGKRLELWFKKG
In the case of B17, the Log2 enrichment ratio is 0.86 log2 in assay [2] and -0.72 log2 in assay [3].

B18: X-CDP08 (designed binder)
chain: ADPKKVLDKAKDRAENRVRKLKKELEKLYKEARKLDLTQEQRDRIINAAIAAMIAAFGDIFHAIMEAKEEARKLKKAGLVNSQQLDELKRRLDELDEEAAQRAEKLGKEFRLKFEY
For the molecule B18, the binding result in assay [1] is reported as “binds”.

B19: X-CDP06 (designed binder)
chain: ADPKKVLDKAKDRAENRVRELKKKLEKLYKEARKLDLTQEQRNKIINAAMAAMIAAFGDIFHAIQEAKEEAKKLKKAGLVNSQQLDELKRRLDELDEEAAQRAEKLGKEFNLKFEY
As for B19, the binding result in assay [1] is recorded as “binds”.

B20: Index 01 (designed binder)
chain: GKRLEETVEETERRLREALREVYLLILLLAEEAKKKDLKEQNRHEYVFKWIAFMLMAIGDIFNIAEESKRRLDLFAKWGLHDRNKIDEAKKKIDKLALEAIERAKKYGDWFLNELDKG
Consider B20, for which, in assay [5], the Kd came out at 39 nM. The Log2 enrichment ratio was determined as 3.54 log2 in assay [2] and 4.02 log2 in assay [3].

B21: Index 29 (designed binder)
chain: GEVAKDLAKLAIDLAKKLMLLFWWFFELFKLFAKFTDEWQEWKARGTAFWIALSLAAIGDFFNARRRAELQAREGKQKGLTTEEKEKRWREHLKEAWEKLEKISRLAFLFAQEAENQG
On to B21, for which the Log2 enrichment ratio was -2.43 log2 in assay [2] and -1.66 log2 in assay [3].

B22: human Bcl-B a.a. 11-175 with C-terminal avi-6his tag (other)
chain: ADPLRERTELLLADYLGYCAREPGTPEPAPSTPEAAVLRSAAARLRQIHRSFFSAYLGYPGNRFELVALMADSVLSDSPGPTWGRVVTLVTFAGTLLERGPLVTARWKKWGFQPRLKEQEGDVARDCQRLVALLSSRLMGQHRAWLQAQGGWDGFCHFFRTPFPGLNDIFEAQKIEWHEGSHHHHHH
notes: also called BCL2L10
B22 registered a Kd in assay [4] of 7 nM.

B23: Index 25 (designed binder)
chain: GANHEDAIWEALYKAEDAFKDHLKEIEIYREFSEKFWPLDDYKDNLRAHWIAAALAAIGDWFNVFFEAELKFREAKRKNLRSEDDIKKYRWRLFKALDIAIDLADRVGDEAEKAERLG
Regarding B23, the Log2 enrichment ratio in assay [2] was -1.53 log2; in assay [3], -2.9 log2.

B24: Index 32 (designed binder)
chain: GGDENKLKDYVKDEIERGLNEIEDLARKIEQLARRFFPKDEERMKFTMWWIAAALMAIGDIFNAKEYARERAEEIRRKGLRREEEARRIEKFIEEEAEKAAKKAAKLGDHLAEELFRG
Consider B24, for which the Log2 enrichment ratio in assay [2] is -2.56 log2; in assay [3] it was -2 log2.

B25: Index 26 (designed binder)
chain: GRFAERLFKKMLIKQLLNTQYFRDQLKQLKDRSKKYDASDDDKDEATHRWIAFALMAIGDVFNDKLEIELLIELFAKYGLVHEEERKEFRKRLDEFEKIFRKWLDELKKLALEALNQG
On to B25, for which the Log2 enrichment ratio in assay [2] was -2 log2; in assay [3], -2.74 log2.

B26: Index 02 (designed binder)
chain: GKSLLGIALEALEEAKRDLEKAKKQMEEMLKKKWKFDTTRDLKARASAEWIAAALKAIGDRFNAKLLIELGLDELFNKGLITQDIKEDIKRRAEEIFEKIERLIKQAIKDKDRFEKLG
Consider B26, for which the Kd in assay [5] was 110 nM. Besides, the Log2 enrichment ratio was 3.43 log2 in assay [2] and 3.92 log2 in assay [3].

For the origin of these results see US20160376333A1 (University of Washington, published 2016).
